This is an account of results in article PMC8539640.

The target of test [1] is Bam35 P22 (special vertex, suggested), bait pBN_22 (Bacillus virus Bam35). The experiment in a line: two-hybrid; pairwise Y2H: Bam35 ORF baits (pBC or pBN) against full-length HER1410 ORF preys (pPC or pPN); HIS3 reporter, -LWH with 0, 0.025, 0.1, 3, 10, 25, 50 and 100 mM 3AT; positive when growth was higher than in the self-activation controls with the empty vectors.
Test [2] has as its target Bam35 P26 (transglycosylase and integral membrane scaffolding, suggested), bait pBN_26 (Bacillus virus Bam35). The experiment in a line: two-hybrid.
For test [3], the target named is Bam35 P19t (P19 without its predicted transmembrane domain), bait pBN_19t (Bacillus virus Bam35). In words: two-hybrid.

For the substance “B. thuringiensis HER1410 YadS, full length, prey pPC_yadS(28175) (natural protein)”, the Max. 3AT (mM) (B35ORF BtORF) in test [1] stood at 50 mM.

As for “B. thuringiensis HER1410 protein of locus 16200, full length, prey pPC_(16200) (natural protein)”, the Max. 3AT (mM) (B35ORF BtORF) in test [2] came to 3 mM.

For the substance “B. thuringiensis HER1410 OmpR, full length, prey pPC_ompR(22050) (natural protein)”, the other in test [3] was 100 mM.
